# Test results as given in US20200199241A1 (Chugai, published 2020).
# Like-named read-outs stand apart in the source and are kept apart here.
# T1: mouse FcγRIIb (mouse, UniProt P08101 30-207, limits assumed)
# T1 construct: bought; also called mFcgRIIb; mFcgR IIb
# T1 sequence (looked up): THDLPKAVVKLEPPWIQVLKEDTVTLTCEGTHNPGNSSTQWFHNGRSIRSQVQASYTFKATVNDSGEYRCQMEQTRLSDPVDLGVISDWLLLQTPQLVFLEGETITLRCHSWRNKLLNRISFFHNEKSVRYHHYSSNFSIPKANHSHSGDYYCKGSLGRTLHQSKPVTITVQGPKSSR
# T2: mouse FcγRIII (mouse, UniProt P08508 31-215)
# T2 construct: bought; also called mFcgRIII; mFcgR III
# T2 sequence (looked up): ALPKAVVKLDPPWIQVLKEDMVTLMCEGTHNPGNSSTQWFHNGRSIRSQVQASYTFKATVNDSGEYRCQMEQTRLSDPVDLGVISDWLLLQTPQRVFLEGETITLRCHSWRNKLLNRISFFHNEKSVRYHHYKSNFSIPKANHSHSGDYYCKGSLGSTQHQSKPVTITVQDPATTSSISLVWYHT
# T3: mouse FcγRIV (mouse, UniProt A0A0B4J1G0 21-203)
# T3 construct: bought; also called mFcgRIV; mFcgR IV; the vendor's purification tag not given
# T3 sequence: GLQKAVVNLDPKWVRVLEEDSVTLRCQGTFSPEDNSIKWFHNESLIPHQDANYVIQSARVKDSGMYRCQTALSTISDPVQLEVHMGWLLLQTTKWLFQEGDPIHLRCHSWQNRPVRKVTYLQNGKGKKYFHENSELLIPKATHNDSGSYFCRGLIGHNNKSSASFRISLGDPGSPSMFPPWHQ
# T4: human FcγRIIb (human, UniProt P31994 43-217, limits assumed)
# T4 construct: also called hFcgRIIb; FcγIIB
# T4 sequence: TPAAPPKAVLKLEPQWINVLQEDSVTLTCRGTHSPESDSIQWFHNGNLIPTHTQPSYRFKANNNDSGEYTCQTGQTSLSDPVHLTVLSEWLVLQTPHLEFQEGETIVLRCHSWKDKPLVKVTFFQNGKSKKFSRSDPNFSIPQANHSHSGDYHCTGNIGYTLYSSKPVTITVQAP
# T5: human FcγRIIa(R) (human, UniProt P12318 36-217)
# T5 construct: also called hFcgRIIa(R); FcγRIIa type R
# T5 chain: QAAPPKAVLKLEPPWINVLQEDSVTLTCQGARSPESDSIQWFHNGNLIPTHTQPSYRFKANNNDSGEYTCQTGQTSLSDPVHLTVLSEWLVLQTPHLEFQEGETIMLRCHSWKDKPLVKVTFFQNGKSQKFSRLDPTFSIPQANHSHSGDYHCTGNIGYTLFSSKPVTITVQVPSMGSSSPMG
# T6: human FcγRIIa(H) (human, UniProt P12318 36-217)
# T6 construct: also called hFcgRIIa(H); FcγRIIa type H
# T6 sequence: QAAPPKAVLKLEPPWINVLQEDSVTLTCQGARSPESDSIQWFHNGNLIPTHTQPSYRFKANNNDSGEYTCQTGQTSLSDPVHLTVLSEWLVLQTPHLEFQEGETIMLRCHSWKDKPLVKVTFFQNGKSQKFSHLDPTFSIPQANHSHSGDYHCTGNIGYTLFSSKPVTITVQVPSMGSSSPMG
# T7: human FcγRIIa(R) (human, UniProt P12318 36-217)
# T7 construct: also called FcgRIIaR; hFcgRIIa(R)
# T7 chain: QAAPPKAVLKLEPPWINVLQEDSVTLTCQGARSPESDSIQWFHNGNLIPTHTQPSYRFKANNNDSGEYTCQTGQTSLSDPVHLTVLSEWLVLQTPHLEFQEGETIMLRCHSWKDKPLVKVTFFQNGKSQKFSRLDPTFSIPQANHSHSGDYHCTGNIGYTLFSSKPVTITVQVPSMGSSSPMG
# T8: human FcγRIIa(H) (human, UniProt P12318 36-217)
# T8 construct: also called FcgRIIaH; hFcgRIIa(H)
# T8 sequence: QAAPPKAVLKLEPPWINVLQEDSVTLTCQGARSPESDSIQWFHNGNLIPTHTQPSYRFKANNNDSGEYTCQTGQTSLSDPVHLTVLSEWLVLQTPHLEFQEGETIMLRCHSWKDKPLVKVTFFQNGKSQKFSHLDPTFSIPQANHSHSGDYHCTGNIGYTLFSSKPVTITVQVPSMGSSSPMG
# T9: human FcγRIIb (human, UniProt P31994 43-217, limits assumed)
# T9 construct: also called FcgRIIb; hFcgRIIb
# T9 sequence: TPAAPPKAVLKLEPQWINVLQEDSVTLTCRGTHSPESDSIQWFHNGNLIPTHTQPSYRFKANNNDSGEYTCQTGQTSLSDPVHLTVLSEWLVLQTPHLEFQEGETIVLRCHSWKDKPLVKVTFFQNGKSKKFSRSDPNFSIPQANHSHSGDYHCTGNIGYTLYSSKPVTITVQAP
# Legend:
# [1] = target: T10, human FcRn (soluble human FcRn complexed with β2-microglobulin) (human, UniProt P61769 21-119, limits assumed); test: SPR, antibody captured by Protein L, human FcRn as analyte, pH 7.0, 25 C
# T10 construct: also called hFcRn
# T10 sequence (chain, as listed by the source limits assumed, chain 1 of 2): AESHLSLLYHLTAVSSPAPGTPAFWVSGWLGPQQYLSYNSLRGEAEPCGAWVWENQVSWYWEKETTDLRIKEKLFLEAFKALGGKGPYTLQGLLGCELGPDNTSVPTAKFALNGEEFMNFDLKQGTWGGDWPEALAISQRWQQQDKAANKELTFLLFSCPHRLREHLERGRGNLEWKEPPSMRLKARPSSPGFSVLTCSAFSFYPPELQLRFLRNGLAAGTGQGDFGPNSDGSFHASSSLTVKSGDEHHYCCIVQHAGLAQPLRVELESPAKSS
# T10 sequence (P61769 21-119 limits assumed, chain 2 of 2): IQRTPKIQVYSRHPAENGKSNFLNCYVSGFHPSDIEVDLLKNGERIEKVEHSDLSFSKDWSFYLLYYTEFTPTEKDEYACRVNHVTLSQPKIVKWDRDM
# mouse FcγRIIb = target: T1, mouse FcγRIIb; test: SPR, antibody captured by Protein L, mouse FcγR as analyte, pH 7.4, 25 C
# mouse FcγRIII = target: T2, mouse FcγRIII; test: as above
# mouse FcγRIV = target: T3, mouse FcγRIV; test: as above
# [2] = target: T10, human FcRn (soluble human FcRn …); test: SPR, antibody captured by Protein L, human FcRn as analyte, pH 7.0, 25 C; remark: listed apart in the source
# human FcγRIa [3] = target: T11, human FcγRIa (human, UniProt P12314 16-292, limits assumed); test: SPR, antibody captured by Protein L, human FcγR as analyte, pH 7.4, 25 C
# T11 construct: also called hFcgRIa; hFcgRI
# [4] = target: T10, human FcRn (soluble human FcRn …); test: SPR, antibody captured by Protein L, human FcRn as analyte, pH 7.0, 25 C; remark: listed apart in the source
# human FcγRIIb [5] = target: T4, human FcγRIIb; test: SPR, antibody captured by Protein L, human FcγR as analyte, pH 7.4, 25 C
# human FcγRIa [6] = target: T11, human FcγRIa; test: as above; remark: listed apart in the source
# human FcγRIIa(R) [7] = target: T5, human FcγRIIa(R); test: as above
# human FcγRIIa(H) [8] = target: T6, human FcγRIIa(H); test: as above
# [9] = target: T10, human FcRn (soluble human FcRn …); test: SPR, antibody captured by Protein L, human FcRn as analyte, pH 7.0, 25 C; remark: listed apart in the source
# human FcγRIIb [10] = target: T4, human FcγRIIb; test: SPR, antibody captured by Protein L, human FcγR as analyte, pH 7.4, 25 C; remark: listed apart in the source
# human FcγRIa [11] = target: T11, human FcγRIa; test: as above; remark: listed apart in the source
# human FcγRIa [12] = target: T12, human FcγRIa (human, UniProt P12314 16-292, limits assumed); test: SPR, antibody captured by Protein A, FcγR analyte, 1:1 Langmuir fit
# T12 construct: also called FcgRIa; hFcgRIa
# human FcγRIIa(R) [13] = target: T7, human FcγRIIa(R); test: as above
# human FcγRIIa(H) [14] = target: T8, human FcγRIIa(H); test: as above
# human FcγRIIb [15] = target: T9, human FcγRIIb; test: as above
# human FcγRIa [16] = target: T12, human FcγRIa; test: SPR
# human FcγRIIa(R) [17] = target: T7, human FcγRIIa(R); test: SPR
# human FcγRIIa(H) [18] = target: T8, human FcγRIIa(H); test: SPR
# human FcγRIIb [19] = target: T9, human FcγRIIb; test: SPR
# human FcγRIIa(H) [20] = target: T8, human FcγRIIa(H); test: SPR, antibody captured by Protein A, FcγR analyte; * calculated with Equation 5
Binder,Kd (human FcγRIa [12]) [nM],Kd (human FcγRIIa(R) [13]) [nM],Kd (human FcγRIIb [15]) [nM],relative KD (KD of IgG1/KD of variant) (human FcγRIa [16]) [fold],relative KD (KD of IgG1/KD of variant) (human FcγRIIa(R) [17]) [fold],relative KD (KD of IgG1/KD of variant) (human FcγRIIa(H) [18]) [fold],relative KD (KD of IgG1/KD of variant) (human FcγRIIb [19]) [fold],further results
"VH3/L(WT)-IgG1-F140 (VH3-IgG1-F140 heavy chain, L(WT)-CK light chain) (antibody, S239K/M252Y/V308P/N434Y; copies: 2 + 2) heavy: QVQLQESGPGLVKPSETLSLTCAVSGHSISHDHAWSWVRQPPGEGLEWIGFISYSGITNYNPSLQGRVTISRDNSKNTLYLQMNSLRAEDTAVYYCARSLARTTAMDYWGEGTLVTVSSASTKGPSVFPLAPSSKSTSGGTAALGCLVKDYFPEPVTVSWNSGALTSGVHTFPAVLQSSGLYSLSSVVTVPSSSLGTQTYICNVNHKPSNTKVDKKVEPKSCDKTHTCPPCPAPELLGGPKVFLFPPKPKDTLYISRTPEVTCVVVDVSHEDPEVKFNWYVDGVEVHNAKTKPREEQYNSTYRVVSVLTPLHQDWLNGKEYKCKVSNKALPAPIEKTISKAKGQPREPQVYTLPPSRDELTKNQVSLTCLVKGFYPSDIAVEWESNGQPENNYKTTPPVLDSDGSFFLYSKLTVDKSRWQQGNVFSCSVMHEALHYHYTQKSLSLSP light: not shown",–,–,–,–,–,–,–,Kd [1]: 36 nM; BINDING AMOUNT (RU) (mouse FcγRIIb): -1.8 RU; BINDING AMOUNT (RU) (mouse FcγRIII): 46.6 RU; BINDING AMOUNT (RU) (mouse FcγRIV): 108 RU; Kd [2]: 36 nM; BINDING AMOUNT (RU) (human FcγRIa [3]): 335 RU
"VH3/L(WT)-IgG1-F763 (antibody, name in EU numbering, copies: 2 + 2) heavy: QVQLQESGPGLVKPSETLSLTCAVSGHSISHDHAWSWVRQPPGEGLEWIGFISYSGITNYNPSLQGRVTISRDNSKNTLYLQMNSLRAEDTAVYYCARSLARTTAMDYWGEGTLVTVSSASTKGPSVFPLAPSSKSTSGGTAALGCLVKDYFPEPVTVSWNSGALTSGVHTFPAVLQSSGLYSLSSVVTVPSSSLGTQTYICNVNHKPSNTKVDKKVEPKSCDKTHTCPPCPAPELRGGPKVFLFPPKPKDTLYISRTPEVTCVVVDVSHEDPEVKFNWYVDGVEVHEAKTKPREEQYNSTYRVVSVLQVLHADWLNGKEYKCKVSNKALPAPIEKTISKAKGQPREPQVYTLPPSRDELTKNQVSLTCLVKGFYPSDIAVEWESNGQPENNYKTTPPVLDSDGSFFLYSKLTVDKSRWQQGNVFSCSVMHEALHYHYTQKSLSLSP light: not shown",–,–,–,–,–,–,–,Kd [4]: 35 nM; BINDING AMOUNT (RU) (human FcγRIIb [5]): -1 RU; BINDING AMOUNT (RU) (human FcγRIa [6]): -0.4 RU; BINDING AMOUNT (RU) (human FcγRIIa(R) [7]): -1 RU; BINDING AMOUNT (RU) (human FcγRIIa(H) [8]): -0.8 RU
"VH3/L(WT)-IgG1-F699 (antibody, name in EU numbering, copies: 2 + 2) heavy: QVQLQESGPGLVKPSETLSLTCAVSGHSISHDHAWSWVRQPPGEGLEWIGFISYSGITNYNPSLQGRVTISRDNSKNTLYLQMNSLRAEDTAVYYCARSLARTTAMDYWGEGTLVTVSSASTKGPSVFPLAPSSKSTSGGTAALGCLVKDYFPEPVTVSWNSGALTSGVHTFPAVLQSSGLYSLSSVVTVPSSSLGTQTYICNVNHKPSNTKVDKKVEPKSCDKTHTCPPCPAPELLGGPKVFLFPPKPKDTLYISRTPEVTCVVVDVSHEDPEVKFNWYVDGVEVHEAKTKPREEQYNSTYRVVSVLQVLHADWLNGKEYKCKVSNKALPAPIEKTISKAKGQPREPQVYTLPPSRDELTKNQVSLTCLVKGFYPSDIAVEWESNGQPENNYKTTPPVLDSDGSFFLYSKLTVDKSRWQQGNVFSCSVMHEALHYHYTQKSLSLSP light: not shown",–,–,–,–,–,–,–,Kd [9]: 23 nM; BINDING AMOUNT (RU) (human FcγRIIb [10]): -0.3 RU; BINDING AMOUNT (RU) (human FcγRIa [11]): 164 RU
"IL6R-G1d/IL6R-L (antibody, human IgG1, anti-human IL-6 receptor, G1d constant region; copies: 2 + 2) heavy: not shown light: DIQMTQSPSSLSASVGDRVTITCRASQDISSYLNWYQQKPGKAPKLLIYYTSRLHSGVPSRFSGSGSGTDFTFTISSLQPEDIATYYCQQGNTLPYTFGQGTKVEIK",0.34,1200,5300,–,–,–,–,Kd (human FcγRIIa(H) [14]): 770 nM
"IL6R-G1d_v1/IL6R-L (antibody, human IgG1, P238D (EU numbering) in IL6R-G1d; also called IgG1-v1; copies: 2 + 2) heavy: not shown light: DIQMTQSPSSLSASVGDRVTITCRASQDISSYLNWYQQKPGKAPKLLIYYTSRLHSGVPSRFSGSGSGTDFTFTISSLQPEDIATYYCQQGNTLPYTFGQGTKVEIK",7.3,12000,1100,0.047,0.1,0.014,4.8,Kd (human FcγRIIa(H) [20]): 56 µM
"IL6R-G1d_v3/IL6R-L (antibody, human IgG1, S267E/L328F (EU numbering) in IL6R-G1d; also called IgG1-v3; copies: 2 + 2) heavy: not shown light: DIQMTQSPSSLSASVGDRVTITCRASQDISSYLNWYQQKPGKAPKLLIYYTSRLHSGVPSRFSGSGSGTDFTFTISSLQPEDIATYYCQQGNTLPYTFGQGTKVEIK",0.19,2.3,13,1.8,522,0.51,408,Kd (human FcγRIIa(H) [14]): 1500 nM
"IL6R-G1d_v2/IL6R-L (antibody, human IgG1, L328E (EU numbering) in IL6R-G1d; also called IgG1-v2; copies: 2 + 2) heavy: not shown light: DIQMTQSPSSLSASVGDRVTITCRASQDISSYLNWYQQKPGKAPKLLIYYTSRLHSGVPSRFSGSGSGTDFTFTISSLQPEDIATYYCQQGNTLPYTFGQGTKVEIK",0.46,2900,2300,0.74,0.41,0.064,2.3,Kd (human FcγRIIa(H) [20]): 12 µM
